Assay results: patent US20200399712A1, “COMPOSITIONS AND METHODS FOR THE DIAGNOSIS AND DETECTION OF TUMORS AND CANCER PROGNOSIS” (priority 2018, published 2020)
“Also recorded” adds a separate entry of the source. Marks after values point to notes of the source that are not given here.

Assays:
[1] = system: HPV-16 genome; experiment: qPCR sensitivity against HPV-16 copy number (known-copy HPV-16 DNA among 10 ng normal human DNA)
[2] = system: HPV-16; experiment: qPCR on 20 ng DNA from saliva samples of HPV-HNSCC patients; conditions: 28 HPV-HNSCC saliva samples
Description: All samples were run in triplicates.
The sensitivity of detection from saliva 20 ng DNA samples is 32.1% (9/28) in E6 primer-probe sets, 42.9% (12/28) in E7 primer-probe sets, 35.7% (10/28) in “Min-5” primer-probe sets, 46.4% (13/28) in “Max-10” primer-probe sets. The sensitivity of combination of “5” and “10” is 50% (14/28) and that of E6 and E7 is 42.9% (12/28). By the standard curve analysis, the copy numbers that detected by “Max-10” primer-probe sets were the highest in these 4 primer-probe sets. The slope of standard curve is −3.5 in “Min-5” primer-probe sets when delta Rn is plotted against cycle threshold (FIG. 5).

[3] = system: HPV16 DNA; experiment: CLIA test for HPV16, performance characteristics in salivary rinse
From the text: (§1) These primer/probe sets were adapted for development of a CLIA test for HPV16 DNA detection in plasma and salivary rinses (Table 2). Test performance was improved, so that analytical sensitivity in salivary rinse spike in assays ranges from 2.5-5.0 DNA copies/mL with 100% specificity for the three primer/probe sets that are now part of the component assay, resulting in a five-fold improvement in analytic sensitivity that is in the range of sensitivity found in sequence based liquid biopsy methods (FIG. 23, Table 2). Additionally, the assays can be used quantitatively, with measuring ranges between 2.0 log10-7.0 log10 copies/mL.

[4] = system: HPV-16; experiment: qPCR sensitivity against HPV-HNSCC tumor samples diluted among 10 ng normal human DNA
[5] = system: HPV DNA; experiment: CLIA HPV test pilot study on saliva rinse samples from HPV-positive HNSCC patients and non-cancer controls; design: species or system HPV16; HPV16 DNA measured by CLIA HPV test: unit not given here
Description: As a final validation, Applicants a small pilot study was performed on a blinded set of saliva rinse samples from 28 patients with HPV-positive HNSCC and 15 salivary rinses from non-cancer controls. […] The sensitivity increased to 96% when all three sets were used (Table 3).

[6] = system: HPV16 DNA; experiment: CLIA test for HPV16, performance characteristics in plasma
From the text: as §1

[7] = among 10 ng normal DNA, triplicate qPCR
[8] = samples tested 3 times, 10 ng DNA from healthy individual
[9] = first template ('... HPV16', word is an image)
[10] = second template (name is an image)
[11] = tumor DNA dilution, fraction of 32 samples

B1: E7: previously designed (historical) HPV-16 E7 primers and Taqman probe, SEQ ID NO: 10-12; part of CLIA test (nucleic acid)
DNA 1: CCGGACAGAGCCCATTACAA
DNA 2: CGAATGTCTACGTGTGTGCTTTG
DNA 3: CGCACAACCGAAGCGTAGAGTCACACT
modifications: Taqman probe, labels not given here
notes: part of CLIA test
[1]; HPV-16 genome among normal 10 ng DNA samples, consistent triplicate reaction
  sensitivity (HPV-16 copies): 30 copies
[1]; [7]
  reaction under 10 copies of HPV-16 genome: reacted inconsistently
  reaction under 30 copies of HPV-16 genome: reacted consistently triplicate; also recorded: reacted consistently in triplicates
[1]; [8]
  number of reactions against 10 HPV-16 copies: 2 reactions
  number of reactions under 30 HPV-16 copies: 3 reactions
[2]
  sensitivity of detection from saliva 20 ng DNA samples: 42.9%
[3]; first template ('... HPV16')
  Measuring Range - Salivary Rinse: 2.0-8.5 log10 log10 copies/mL
[3]; [9]
  Limit of Detection - Salivary rinse: 3 copies/mL
[3]; [10]
  Limit of Detection - Salivary rinse: 23 copies/mL
  Measuring Range - Salivary Rinse: 2.0-6.5 log10 log10 copies/mL
[4]; 32 HPV-HNSCC tumor samples
  sensitivity under 100 cells: 96.9%
[4]; 32 HPV-HNSCC tumor samples, 6.6 pg DNA
  sensitivity under single cells: 9.4%
[4]; 32 HPV-HNSCC tumor samples, 66 pg DNA
  sensitivity under 10 cells: 68.8%
[4]; Sample # 1
  Threshold of tumor cell numbers for HPV-16 detection: 60.0 tumor cells
[4]; Sample # 2
  Threshold of tumor cell numbers for HPV-16 detection: 30.0 tumor cells
[4]; Sample # 3
  Threshold of tumor cell numbers for HPV-16 detection: 30.0 tumor cells
[4]; Sample # 4
  Threshold of tumor cell numbers for HPV-16 detection: 150.0 tumor cells
[4]; Sample # 5
  Threshold of tumor cell numbers for HPV-16 detection: 6.0 tumor cells
[4]; Sample # 6
  Threshold of tumor cell numbers for HPV-16 detection: 6.0 tumor cells
[4]; Sample # 7
  Threshold of tumor cell numbers for HPV-16 detection: 30.0 tumor cells
[4]; Sample # 8
  Threshold of tumor cell numbers for HPV-16 detection: 15.0 tumor cells
[4]; Sample # 9
  Threshold of tumor cell numbers for HPV-16 detection: 30.0 tumor cells
[4]; Sample # 10
  Threshold of tumor cell numbers for HPV-16 detection: 6.0 tumor cells
[4]; Sample # 11
  Threshold of tumor cell numbers for HPV-16 detection: 6.0 tumor cells
[4]; Sample # 12
  Threshold of tumor cell numbers for HPV-16 detection: 30.0 tumor cells
[4]; Sample # 13
  Threshold of tumor cell numbers for HPV-16 detection: 6.0 tumor cells
[4]; Sample # 14
  Threshold of tumor cell numbers for HPV-16 detection: 6.0 tumor cells
[4]; Sample # 15
  Threshold of tumor cell numbers for HPV-16 detection: 6.0 tumor cells
[4]; Sample # 16
  Threshold of tumor cell numbers for HPV-16 detection: 6.0 tumor cells
[4]; Sample # 17
  Threshold of tumor cell numbers for HPV-16 detection: 1.2 tumor cells
[4]; Sample # 18
  Threshold of tumor cell numbers for HPV-16 detection: 6.0 tumor cells
[4]; Sample # 19
  Threshold of tumor cell numbers for HPV-16 detection: 1.2 tumor cells
[4]; Sample # 20
  Threshold of tumor cell numbers for HPV-16 detection: 1.2 tumor cells
[4]; Sample # 21
  Threshold of tumor cell numbers for HPV-16 detection: 1.2 tumor cells
[4]; Sample # 22
  Threshold of tumor cell numbers for HPV-16 detection: 1.2 tumor cells
[4]; Sample # 23
  Threshold of tumor cell numbers for HPV-16 detection: 1.2 tumor cells
[4]; Sample # 24
  Threshold of tumor cell numbers for HPV-16 detection: 1.2 tumor cells
[4]; Sample # 25
  Threshold of tumor cell numbers for HPV-16 detection: 0.3 tumor cells
[4]; Sample # 26
  Threshold of tumor cell numbers for HPV-16 detection: 0.3 tumor cells
[4]; Sample # 27
  Threshold of tumor cell numbers for HPV-16 detection: 1.0 tumor cells
[4]; Sample # 28
  Threshold of tumor cell numbers for HPV-16 detection: 1.0 tumor cells
[4]; Sample # 29
  Threshold of tumor cell numbers for HPV-16 detection: 3.0 tumor cells
[4]; Sample # 30
  Threshold of tumor cell numbers for HPV-16 detection: 15.0 tumor cells
[4]; Sample # 31
  Threshold of tumor cell numbers for HPV-16 detection: 0.6 tumor cells
[4]; Sample # 32
  Threshold of tumor cell numbers for HPV-16 detection: 15.0 tumor cells
[4]; [11]
  Sensitivity, 1 cell: 0.094
  Sensitivity, 3 cells: 0.375
  Sensitivity, 10 cells: 0.688
  Sensitivity, 30 cells: 0.938*
  Sensitivity, 100 cells: 0.969*
[5]; 28 patients with HPV-positive HNSCC
  sensitivity for the detection of HPV DNA in saliva rinse samples: 82%
[5]; saliva sample from HPV-HNSCC patient # 1
  HPV16 DNA measured by CLIA HPV test: 328000
[5]; saliva sample from HPV-HNSCC patient # 2
  HPV16 DNA measured by CLIA HPV test: 50000
[5]; saliva sample from HPV-HNSCC patient # 3
  HPV16 DNA measured by CLIA HPV test: 48500
[5]; saliva sample from HPV-HNSCC patient # 4
  HPV16 DNA measured by CLIA HPV test: 46500
[5]; saliva sample from HPV-HNSCC patient # 5
  HPV16 DNA measured by CLIA HPV test: 14700
[5]; saliva sample from HPV-HNSCC patient # 6
  HPV16 DNA measured by CLIA HPV test: 7320
[5]; saliva sample from HPV-HNSCC patient # 7
  HPV16 DNA measured by CLIA HPV test: 4950
[5]; saliva sample from HPV-HNSCC patient # 8
  HPV16 DNA measured by CLIA HPV test: 1570
[5]; saliva sample from HPV-HNSCC patient # 9
  HPV16 DNA measured by CLIA HPV test: 1020
[5]; saliva sample from HPV-HNSCC patient # 10
  HPV16 DNA measured by CLIA HPV test: 981
[5]; saliva sample from HPV-HNSCC patient # 11
  HPV16 DNA measured by CLIA HPV test: 521
[5]; saliva sample from HPV-HNSCC patient # 12
  HPV16 DNA measured by CLIA HPV test: 155
[5]; saliva sample from HPV-HNSCC patient # 13
  HPV16 DNA measured by CLIA HPV test: 140
[5]; saliva sample from HPV-HNSCC patient # 14
  HPV16 DNA measured by CLIA HPV test: 82.7
[5]; saliva sample from HPV-HNSCC patient # 15
  HPV16 DNA measured by CLIA HPV test: 62.6
[5]; saliva sample from HPV-HNSCC patient # 16
  HPV16 DNA measured by CLIA HPV test: 41.2
[5]; saliva sample from HPV-HNSCC patient # 17
  HPV16 DNA measured by CLIA HPV test: 14.1
[5]; saliva sample from HPV-HNSCC patient # 18
  HPV16 DNA measured by CLIA HPV test: 9.69
[5]; saliva sample from HPV-HNSCC patient # 19
  HPV16 DNA measured by CLIA HPV test: 8.17
[5]; saliva sample from HPV-HNSCC patient # 20
  HPV16 DNA measured by CLIA HPV test: 6.5
[5]; saliva sample from HPV-HNSCC patient # 21
  HPV16 DNA measured by CLIA HPV test: 4.02
[5]; saliva sample from HPV-HNSCC patient # 22
  HPV16 DNA measured by CLIA HPV test: 2.52
[5]; saliva sample from HPV-HNSCC patient # 23
  HPV16 DNA measured by CLIA HPV test: 0.986
[6]
  Accuracy - Plasma Blind Panel, Negative % Agreement: 90%
  Accuracy - Plasma Blind Panel, Positive % Agreement: 100%
  Accuracy - Plasma Blind Panel, Total % Agreement: 97%
[6]; first template ('... HPV16')
  Measuring Range - Plasma: 2.0-8.5 log10 log10 copies/mL
[6]; [9]
  Limit of Detection - Plasma: 1.5 copies/mL
[6]; [10]
  Limit of Detection - Plasma: 13 copies/mL
  Measuring Range - Plasma: 2.0-5.0 log10 log10 copies/mL
